Data from paper PMC5473940, “SAF-A Regulates Interphase Chromosome Structure through Oligomerization with Chromatin-Associated RNAs” (Cell, 2017).

Biological target: the molecule itself
Test: native gel or EMSA; FLAG-SAF-A cross-linked in cells with 1 mM DTME, immuno-purified, cross-links reversed with 10 mM DTT, incubated 30 min at 37°C with 1 mM ATP or ATPγS, RNase A/T1 or apyrase (the last two promoted monomerization); native PAGE and western blot

B1: full-length FLAG-tagged SAF-A (293T) (natural protein)
chain: not shown
notes: SAF-A (HNRNP-U), human cDNA from Genome Cube; Modified pcDNA5/FRT vector; also called FLAG-SAF-A; 3xFLAG-SAF-A; source: 293T, expressed, cross-linked in cells, immuno-purified (anti-FLAG M2 agarose, 3xFLAG peptide elution); not shown: 3xFLAG, N-terminal, kept
Question: Does B1 bind?
Answer: Result: binds
